Laboratory results published in patent US20120316071A1 (published 2012).
Substitutions are numbered along the chain they refer to. Names may count otherwise.

B1: Fab VH5-51_IGHD5-18*01>3_IGHJ4*01 G100K/G104T G24T/S28R/G35V (H:KT TRV) & V3-4_IGLJ1*01 (Fab, V domains shown)
VH: EVQLVQSGAEVKKPGESLKISCKTSGYRFTSYWIVWVRQMPGKGLEWMGIIYPGDSDTRYSPSFQGQVTISADKSISTAYLQWSSLKASDTAMYYCARRKYSYTYDYFDYWGQGTLVTVSS
VL: QTVVTQEPSFSVSPGGTVTLTCGLSSGSVSTSYYPSWYQQTPGQAPRTLIYSTNTRSSGVPDRFSGSILGNKAALTITGAQADDESDYYCVLYMGSGISYVFGTGTKVTVL
notes: Fab with the parent (unmutated) light chain; expressed from plasmid A (CH1, His6 and Flag tags) and plasmid E (lambda CL); also called H:KT TRV & L:wt
B2: Fab VH5-51_IGHD5-18*01>3_IGHJ4*01 G100K/G104T G24T/S28R/G35V (H:KT TRV) & V3-4_IGLJ1*01 S57A (Fab, V domains shown)
VH: B1 VH
VL: B1 VL with S57A
notes: Fab; expressed from plasmid A (CH1, His6 and Flag tags) and plasmid E (lambda CL)
B3: Fab VH5-51_IGHD5-18*01>3_IGHJ4*01 G100K/G104T G24T/S28R/G35V (H:KT TRV) & V3-4_IGLJ1*01 M94N (Fab, V domains shown)
VH: B1 VH
VL: B1 VL with M94N
notes: as for B2
B4: Fab VH5-51_IGHD5-18*01>3_IGHJ4*01 G100K/G104T G24T/S28R/G35V (H:KT TRV) & V3-4_IGLJ1*01 N54A (Fab, V domains shown)
VH: B1 VH
VL: B1 VL with N54A
notes: as for B2
B5: Fab VH5-51_IGHD5-18*01>3_IGHJ4*01 G100K/G104T G24T/S28R/G35V (H:KT TRV) & V3-4_IGLJ1*01 M94V (Fab, V domains shown)
VH: B1 VH
VL: B1 VL with M94V
notes: as for B2
B6: Fab VH5-51_IGHD5-18*01>3_IGHJ4*01 G100K/G104T G24T/S28R/G35V (H:KT TRV) & V3-4_IGLJ1*01 M94S (Fab, V domains shown)
VH: B1 VH
VL: B1 VL with M94S
notes: as for B2
B7: Fab VH5-51_IGHD5-18*01>3_IGHJ4*01 G100K/G104T G24T/S28R/G35V (H:KT TRV) & V3-4_IGLJ1*01 S58A (Fab, V domains shown)
VH: B1 VH
VL: B1 VL with S58A
notes: as for B2
B8: Fab VH5-51_IGHD5-18*01>3_IGHJ4*01 G100K/G104T G24T/S28R/G35V (H:KT TRV) & V3-4_IGLJ1*01 M94R (Fab, V domains shown)
VH: B1 VH
VL: B1 VL with M94R
notes: as for B2
B9: Fab VH5-51_IGHD5-18*01>3_IGHJ4*01 G100K/G104T G24T/S28R/G35V (H:KT TRV) & V3-4_IGLJ1*01 M94F (Fab, V domains shown)
VH: B1 VH
VL: B1 VL with M94F
notes: as for B2
B10: Fab VH5-51_IGHD5-18*01>3_IGHJ4*01 G100K/G104T G24T/S28R/G35V (H:KT TRV) & V3-4_IGLJ1*01 M94G (Fab, V domains shown)
VH: B1 VH
VL: B1 VL with M94G
notes: as for B2
B11: Fab VH5-51_IGHD5-18*01>3_IGHJ4*01 G100K/G104T G24T/S28R/G35V (H:KT TRV) & V3-4_IGLJ1*01 M94L (Fab, V domains shown)
VH: B1 VH
VL: B1 VL with M94L
notes: as for B2
B12: Fab VH5-51_IGHD5-18*01>3_IGHJ4*01 G100K/G104T G24T/S28R/G35V (H:KT TRV) & V3-4_IGLJ1*01 M94A (Fab, V domains shown)
VH: B1 VH
VL: B1 VL with M94A
notes: as for B2
B13: Fab VH5-51_IGHD5-18*01>3_IGHJ4*01 G100K/G104T G24T/S28R/G35V (H:KT TRV) & V3-4_IGLJ1*01 M94T (Fab, V domains shown)
VH: B1 VH
VL: B1 VL with M94T
notes: as for B2
B14: Fab VH5-51_IGHD5-18*01>3_IGHJ4*01 G100K/G104T G24T/S28R/G35V (H:KT TRV) & V3-4_IGLJ1*01 M94E (Fab, V domains shown)
VH: B1 VH
VL: B1 VL with M94E
notes: as for B2
B15: Fab VH5-51_IGHD5-18*01>3_IGHJ4*01 G100K/G104T G24T/S28R/G35V (H:KT TRV) & V3-4_IGLJ1*01 M94P (Fab, V domains shown)
VH: B1 VH
VL: B1 VL with M94P
notes: as for B2
B16: Fab VH5-51_IGHD5-18*01>3_IGHJ4*01 G100K/G104T G24T/S28R/G35V (H:KT TRV) & V3-4_IGLJ1*01 M94D (Fab, V domains shown)
VH: B1 VH
VL: B1 VL with M94D
notes: as for B2
B17: Fab VH5-51_IGHD5-18*01>3_IGHJ4*01 G100K/G104T G24T/S28R/G35V (H:KT TRV) & V3-4_IGLJ1*01 R56A (Fab, V domains shown)
VH: B1 VH
VL: B1 VL with R56A
notes: as for B2
B18: Fab VH1-46_IGHD6-6*01_IGHJ1*01 S102A/S103P/S104F/H111F (APFF) & L6_IGKJ1*01 (Fab, V domains shown)
VH: QVQLVQSGAEVKKPGASVKVSCKASGYTFTSYYMHWVRQAPGQGLEWMGIINPSGGSTSYAQKFQGRVTMTRDTSTSTVYMELSSLRSEDTAVYYCAREEYAPFSAEYFQFWGQGTLVTVSS
VL: not shown
notes: Fab made in E. coli; The constant parts (CH1 with His6 and Flag tags from plasmid A, kappa CL from plasmid C) are not added here; also called H:APFF & L:wt; APFF & parent
B19: Fab VH1-46_IGHD6-6*01_IGHJ1*01 S102A/S103P/S104F/H111F (APFF) & L6_IGKJ1*01 S31R (Fab, V domains shown)
VH: B18 VH
VL: EIVLTQSPATLSLSPGERATLSCRASQSVSRYLAWYQQKPGQAPRLLIYDASNRATGIPARFSGSGSGTDFTLTISSLEPEDFAVYYCQQRSNWPPWTFGQGTKVEIKR
notes: Fab made in E. coli; The constant parts (CH1 with His6 and Flag tags from plasmid A, kappa CL from plasmid C) are not added here; also called APFF & S31R
B20: Fab VH1-46_IGHD6-6*01_IGHJ1*01 S102A/S103P/S104F/H111F (APFF) & L6_IGKJ1*01 S31L (Fab, V domains shown)
VH: B18 VH
VL: B19 VL with R31L
notes: Fab made in E. coli; The constant parts (CH1 with His6 and Flag tags from plasmid A, kappa CL from plasmid C) are not added here; also called APFF & S31L
B21: Fab VH1-46_IGHD6-6*01_IGHJ1*01 S102A/S103P/S104F/H111F (APFF) & L6_IGKJ1*01 S31M (Fab, V domains shown)
VH: B18 VH
VL: B19 VL with R31M
notes: Fab made in E. coli; The constant parts (CH1 with His6 and Flag tags from plasmid A, kappa CL from plasmid C) are not added here; also called APFF & S31M

These binders were tested against T1, Recombinant Human DLL4 (human, UniProt Q9NR61 27-524) (assay: ELISA, DLL4 coated on the plate, Fab at 100 nM, signal minus blank).
T1 construct: Bought recombinant human DLL4 (R&D Systems Cat#1506-D4/CF); also called delta-like protein 4; Delta-like 4

Row | ELISA Signal-blank (100 nM Fab) | Binder
1 | 0.393 | B1
2 | 0.598 | B2
3 | 0.205 | B3
4 | 0.318 | B4
5 | 0.315 | B5
6 | 0.195 | B6
7 | 0.451 | B7
8 | 0.197 | B8
9 | 0.317 | B9
10 | 0.199 | B10
11 | 0.388 | B11
12 | 0.216 | B12
13 | 0.395 | B13
14 | 0.171 | B14
15 | 0.256 | B15
16 | 0.07 | B16
17 | 0.442 | B17

What follows are binders tested against T2, Recombinant Human DLL4 (delta-like protein 4) (human, UniProt Q9NR61 27-524) (assay: ECL (MSD) multispot binding assay, antigen spotted on plate, Fab in solution;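 further: purified Fab incubated 1 h at 20 °C, detected via TAG-labelled antibody electrochemiluminescence, antigen spot compared with the blank in the same well, ratio at least 4 counted as hit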).
T2 construct: Bought recombinant human DLL4 (R&D Systems Cat#1506-D4/CF); also called rHuman DLL4

Row | Signal/Blank | ECL signal | Binder
18 | 389 |  | B18
19 | 558 | 166000 | B19
20 | 373 |  | B20
21 | 378 |  | B21
